Consider six molecules from US20200010567A1 (NEURIMMUNE, published 2020).

T1: (PR)15: H-C(PR)15-OH
T1 construct: synthetic, not coupled to BSA; also called poly-PR DPR protein peptide
T1 peptide: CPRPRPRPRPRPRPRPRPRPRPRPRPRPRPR

T2: (PA)15: H-C(PA)15-OH
T2 construct: synthetic, not coupled to BSA; also called poly-PA DPR protein peptide
T2 peptide: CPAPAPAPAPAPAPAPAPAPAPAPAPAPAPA

T3: (GR)15: H-C(GR)15-OH
T3 construct: synthetic, not coupled to BSA; also called poly-GR DPR protein peptide
T3 peptide: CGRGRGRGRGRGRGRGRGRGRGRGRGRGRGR

T4: (GP)15: H-C(GP)15-OH
T4 construct: synthetic, not coupled to BSA; also called poly-GP DPR protein peptide
T4 peptide: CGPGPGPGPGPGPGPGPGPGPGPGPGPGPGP

T5: GA20: H-(GA)20HHHHHH-NH2 (C-terminal amide)
T5 peptide: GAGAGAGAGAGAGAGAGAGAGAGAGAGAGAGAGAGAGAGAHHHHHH

T6: GA10: H-(GA)10HHHHHH-NH2 (C-terminal amide)
T6 peptide: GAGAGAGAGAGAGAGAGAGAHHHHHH

T7: GA6: H-(GA)6HHHHHH-NH2
T7 peptide: H-GAGAGAGAGAGAHHHHHH-NH2

B1: NI-308.28G1 (antibody, V domains shown)
VH: QVQLQESGPRLVKPSETLSLTCTVAGGSVNSYYWTWIQQSPGKGLEWLGRIYIAGRTNYNPSLTSRIALSVDTSRNQLSLKLTSVTAADTAIYYCARWGAESGDYYYGVDVWGPGTLVTVSS
VL: EIVMTQSPLSLPVTPGEPASISCKSSEGLLHSNGYTYLDWYLQKPGQAPQLLIFLASNRAAGVPDRFSGSGSGTDFTLKISRVEAEDVGVYYCMQAIQSPWTFGPGTKVEIK
notes: Recombinant complete human IgG1, kappa
B2: NI-308.4M1 (antibody, V domains shown)
VH: EVQLVETGGGVVQPGGSLRLSCEASGFTIGTYAMHWVRQFPGKGLDWVAVISFDGTTEYYTDAVKGRFTISRDNAKNTLYLQMNYLRGDDTAIYFCARDFTSSGETGSWTQVPDLWGQGTLVTVSS
VL: CEIVMTQSPATLSLSPGERATLSCRASQSVTKYLAWYQQKPGQAPRLLIYDVSYRAAGTPARFSGSGSGTDFTLTISSLEPEDFAVYYCHQRSSWPPVTFGGGTKVEIK
notes: as for B1
B3: NI-308.46E9 (antibody, V domains shown)
VH: QVQLQESGPGLVKPSETLSLTCTVSGASISGSTYYWGWIRQPPGKGLEYIGRIYYSGSTYYNPSLKSRATISVDTSKNQLSLTLSSVTAADTAVYYCVRPFYAGSGNSPFDYWGQGTLVTVSS
VL: CEIVLTQSPATVSVSPGERATLSCRASQSVSTNLAWYQQKPGQPPRLLIYGASTRATGIPARFSGSGSGAEFTLTISSLQSEDFVVYYCQQYNNWPPAFGGGTKVEIK
notes: as for B1
B4: NI-308.15O7 (antibody, V domains shown)
VH: QVQLVESGGGVVQPGRSLRLSCAASGFTFSNHAMHWVRQAPGKGLEWVAVISYDGENTYYADSIEGRFTISRDNFKNTLFLQMYSLTADDTAMYFCARGGRRGHFTSYYLDYWGQGTLVTVSS
VL: CDIQMTQSPSSLSASVGDRVTITCRASQNIDKYLNWYQQIPGKAPKLLIYAASSLHSGVPSRFSGSGSGTDFSLTISSLQPEDFAIYYCQQSYSSFRTFGQGTKLEIK
B5: NI-308.24E11 (antibody, V domains shown)
VH: QVQLQESGPGLVKPSETLSLTCTVSTTSLRSYFWSWIRQPPGKGLEWIGYVYYSGSTIYNPSLKNRVTISIDTSKNQFSLNLRSVTAADTAMYFCARGVPAETDARDFPPYYFDHWGQGTLVTVSS
VL: CDIQLTQSPSSLSASVGNRITFTCQASQDIRYYLNWYQQKPGKAPKLLIYDVSNLDTGVPPRFSGSGSGTNFTFTISSLQPEDIAVYYCQQYEGLPVTFGGGTKVEIK
notes: as for B1
B6: NI-308.6B11 (antibody, V domains shown)
VH: EVQLVQSGAEVKRPGASVKVSCKVSGYTLTELSMHWVRQAPGKGLEWMGGFDPEDGETVYAQKFQGRVTMTEDTSTDTAYMELSSLRSEDTALYHCATYGSSWHWNEGNEGSYYFDYWGQGTLVTVSS
VL: CDIQMTQSPSSLSASVGDRVTITCQASQDISIYLNWYQQKPGKAPKLLIYDASNLETGVPSRFSGSGSGTDFTFTISGLQPEDVARYYCQQYDDLPITFGQGTRLEIK
notes: as for B1

Chain of Tau (P10636 other isoform, or with tags, fused parts or gaps limits assumed): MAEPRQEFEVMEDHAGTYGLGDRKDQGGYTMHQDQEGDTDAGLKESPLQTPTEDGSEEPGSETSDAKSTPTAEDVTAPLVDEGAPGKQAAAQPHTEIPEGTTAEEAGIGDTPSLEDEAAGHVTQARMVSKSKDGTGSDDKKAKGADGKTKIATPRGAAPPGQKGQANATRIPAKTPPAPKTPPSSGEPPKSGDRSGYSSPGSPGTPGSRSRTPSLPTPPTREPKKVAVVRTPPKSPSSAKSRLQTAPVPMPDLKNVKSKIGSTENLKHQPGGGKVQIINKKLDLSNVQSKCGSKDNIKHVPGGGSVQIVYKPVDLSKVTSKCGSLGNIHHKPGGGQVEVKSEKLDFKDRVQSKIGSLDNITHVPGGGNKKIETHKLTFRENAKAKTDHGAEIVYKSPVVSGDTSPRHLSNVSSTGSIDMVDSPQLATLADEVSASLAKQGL
T8 sequence (P05067 18-770 limits assumed): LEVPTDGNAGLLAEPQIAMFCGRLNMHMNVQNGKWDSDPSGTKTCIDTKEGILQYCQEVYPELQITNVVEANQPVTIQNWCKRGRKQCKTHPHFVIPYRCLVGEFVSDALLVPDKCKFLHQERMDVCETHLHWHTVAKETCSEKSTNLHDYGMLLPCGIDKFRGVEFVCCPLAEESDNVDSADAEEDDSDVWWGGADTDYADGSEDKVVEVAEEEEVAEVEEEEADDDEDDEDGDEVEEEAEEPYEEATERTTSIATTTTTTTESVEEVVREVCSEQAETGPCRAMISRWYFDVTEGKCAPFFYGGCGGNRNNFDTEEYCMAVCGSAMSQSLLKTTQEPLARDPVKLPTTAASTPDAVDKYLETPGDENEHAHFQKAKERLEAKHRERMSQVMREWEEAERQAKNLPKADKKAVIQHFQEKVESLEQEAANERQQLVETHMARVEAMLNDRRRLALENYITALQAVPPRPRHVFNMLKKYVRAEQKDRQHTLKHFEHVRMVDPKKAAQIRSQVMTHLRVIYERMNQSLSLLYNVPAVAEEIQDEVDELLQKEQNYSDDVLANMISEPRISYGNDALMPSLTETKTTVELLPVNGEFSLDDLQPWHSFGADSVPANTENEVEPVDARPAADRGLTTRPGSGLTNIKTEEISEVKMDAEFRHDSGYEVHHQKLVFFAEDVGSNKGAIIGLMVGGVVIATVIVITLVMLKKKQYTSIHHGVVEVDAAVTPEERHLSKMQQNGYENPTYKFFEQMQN

The target of one experiment is T1, (PR)15: H-C(PR)15-OH. Kind of experiment: indirect ELISA, coated peptide. The protocol:
(§1) In brief, dipeptide repeat proteins were synthesized and purified by Schafer-N(Copenhagen, Denmark): (GA)₁₅: H-CHHHHHH(GA)₁₅-OH; (GP)₁₅: H-C(GP)₁₅-OH; (GR)₁₅: H-C(GR)₁₅-OH; (PA)₁₅: H-C(PA)₁₅-OH; (PR)₁₅: H—C(PR)₁₅-OH. 96-well microplates (Corning Incorporated, Corning, USA) were coated with dipeptide repeat protein peptides at a concentration of either 5 μg/ml or 20 μg/ml in coating buffer (15 mM Na₂CO₃, 35 mM NaHCO₃, pH 9.42). Non-specific binding sites were blocked for 1 h at room temperature with PBS/0.1% Tween®-20 containing 2% BSA (Sigma-Aldrich, Buchs, Switzerland). Primary antibodies were diluted to the indicated concentrations and incubated for 1 h at room temperature, followed by incubation with a donkey anti-human IgG Fcγ-specific antibody conjugated with HRP (Jackson ImmunoResearch Laboratories, Inc., West Grove, USA). Binding was determined by measurement of HRP activity in a standard colorimetric assay. EC₅₀ values were estimated by non-linear regression using GraphPad Prism software (San Diego, USA). The binding specificity and EC₅₀ of human-derived antibodies for C9orf72 dipeptide repeat protein peptides (GA)₁₅, (GP)₁₅, (GR)₁₅, (PA)₁₅ and (PR)₁₅ were determined by indirect ELISA.
B1: the binding result is listed as “no binding”.

Turning to B2, the binding result was “no binding”.

On to B3, for which the binding result is given as “no binding”.

As for B4, the binding result is reported as “no binding”.

For another experiment, the target named is T2, (PA)15: H-C(PA)15-OH. Kind of experiment: indirect ELISA, coated peptide. Here is the method: as §1
(In an ELISA, binding on a coated surface is turned into a signal by an enzyme label.)
As to B1, the binding result is reported as “no binding”.

Turning to B3, the binding result is given as “no binding”.

As to B5, the binding result is recorded as “no binding”.

As to B4, the binding result is given as “no binding”.

On to B6, for which the binding result is given as “no binding”.

A further experiment concerns the target T3, (GR)15: H-C(GR)15-OH. Kind of experiment: indirect ELISA, coated peptide. Here is the method: as §1
Take B1: the binding result was “no binding”.

Regarding B2, the binding result was “no binding”.

For the molecule B3, the binding result is “no binding”.

Turning to B5, the binding result is listed as “no binding”.

Turning to B4, the binding result is on record as “no binding”.

A further experiment addresses T4, (GP)15: H-C(GP)15-OH. Briefly: indirect ELISA, coated peptide. The protocol: as §1
As to B1, the binding result is given as “no binding”.

Take B2: the binding result is on record as “no binding”.

Regarding B5, the binding result was “no binding”.

B4: the binding result is listed as “no binding”.

Regarding B6, the binding result is reported as “no binding”.

The target of a further experiment is T5, GA20: H-(GA)20HHHHHH-NH2. Briefly: indirect ELISA, coated His-tagged peptide. The source says: (§2) In brief, dipeptide repeat proteins were synthesized and purified by Schafer-N (Copenhagen, Denmark): GA₂₀: H-(GA)₂₀HHHHHH-NH₂; GA₁₀: H-(GA)₁₀HHHHHH-NH₂; GA₆: H-(GA)₆HHHHHH-NH₂; GA₅: H-(GA)₅HHHHHH-NH₂; GA₄: H-(GA)₄HHHHHH-NH₂; GA₃: H-(GA)₃HHHHHH-NH₂; GA₂: H-(GA)₂HHHHHH-NH₂; GP₂₀: H-(GP)₂₀HHHHHH-NH₂; GP₁₀: H-(GP)₁₀HHHHHH-NH₂; GP₆: H-(GP)₆HHHHHH-NH₂; GP₅: H-(GP)₅HHHHHH-NH₂; GP₄: H-(GP)₄HHHHHH-NH₂; GP₃: H-(GP)₃HHHHHH-NH₂; GP₂: H-(GP)₂HHHHHH-NH₂. GR₂₀: H-(GR)₂₀HHHHHH-NH₂; GR₁₀: H-(GR)₁₀HHHHHH-NH₂; GR₆: H-(GR)₆HHHHHH-NH₂; GR₅: H-(GR)₅HHHHHH-NH₂; GR₄: H-(GR)₄HHHHHH-NH₂; GR₃: H-(GR)₃HHHHHH-NH₂; GR₂: H-(GR)₂HHHHHH-NH₂; PA₂₀: H-(PA)₂₀HHHHHH-NH₂; PA₁₀: H-(PA)₁₀HHHHHH-NH₂; PA₆: H-(PA)₆HHHHHH-NH₂; PA₅: H-(PA)₅HHHHHH-NH₂; PA₄: H-(PA)₄HHHHHH-NH₂; PA₃: H-(PA)₃HHHHHH-NH₂; PA₂: H-(PA)₂HHHHHH-NH₂; PR₂₀: H-(PR)₂₀HHHHHH-NH₂; PR₁₀: H-(PR)₁₀HHHHHH-NH₂; PR₆: H-(PR)₆HHHHHH-NH₂; PR₅: H-(PR)₅HHHHHH-NH₂; PR₄: H-(PR)₄HHHHHH-NH₂; PR₃: H-(PR)₃HHHHHH-NH₂; PR₂: H-(PR)₂HHHHHH-NH₂. 96-well microplates (Corning Incorporated, Corning, USA) were coated with dipeptide repeat protein peptides at a concentration of 50 μg/ml in coating buffer (15 mM Na₂CO₃, 35 mM NaHCO₃, pH 9.42). Non-specific binding sites were blocked for 1 h at room temperature with PBS/0.1% Tween®-20 containing 2% BSA (Sigma-Aldrich, Buchs, Switzerland). Primary antibodies were diluted to the indicated concentrations and incubated 1 h at room temperature, followed by incubation with a donkey anti-human IgG Fcγ-specific antibody conjugated with HRP (Jackson ImmunoResearch Laboratories, Inc., West Grove, USA). Binding was determined by measurement of HRP activity in a standard colorimetric assay. EC₅₀ values were estimated by non-linear regression using GraphPad Prism software (San Diego, USA).
What is called EC50 is the concentration at which the effect is half-maximal. A low value points to a more potent agent. B1 gave an EC50 of 1.1 nM.

With B4, a half-maximal effect (EC50) was put at 0.54 nM.

For B6, the EC50 stood at 33.6 nM.

A further experiment has as its target T6, GA10: H-(GA)10HHHHHH-NH2. Kind of experiment: indirect ELISA, coated His-tagged peptide.
Description: as §2
With B1, a half-maximal effect (EC50) was put at 0.9 nM.

With B6, the EC50 came out at 27.7 nM. Compared with the last molecule, the EC50 is about 31-fold higher.

The target in a further experiment is T7, GA6: H-(GA)6HHHHHH-NH2. Kind of experiment: indirect ELISA, coated His-tagged peptide.
Description: as §2
For B6, the EC50 is above 200 nM.

Another experiment has as its target transthyrethin (UniProt P02766 21-147). Briefly: indirect ELISA, coated protein. The protocol: (§3) 96-well microplates (Corning) were coated with different target proteins at a concentration of 1-10 μg/ml in coating buffer (15 mM Na₂CO₃, 35 mM NaHCO₃, pH 9.42). Non-specific binding sites were blocked for 1 h at RT with PBS/0.1% Tween®-20 containing 2% BSA (Sigma-Aldrich, Buchs, Switzerland). […] Binding was determined using donkey anti-human IgG Fcγ-specific antibody conjugated with HRP (Jackson ImmunoResearch Laboratories, Inc., West Grove, USA) followed by measurement of HRP activity in a standard colorimetric assay. Signals for target protein were calculated in fold increase above median.
As to B1, the binding result is “no binding (tested: 20 nM)”.

Consider B5, for which the binding result is “no binding (tested: 20 nM)”.

For B4, the binding result is listed as “no binding (tested: 20 nM)”.

On to B6, for which the binding result is “no binding (tested: 20 nM)”.

A further experiment addresses T8, full-length amyloid precursor protein (UniProt P05067 18-770, limits assumed).
T8 construct: also called flAPP
Kind of experiment: indirect ELISA, coated protein. The protocol: as §3
As to B1, the binding result is reported as “no binding (tested: 20 nM)”.

Take B5: the binding result was “no binding (tested: 20 nM)”.

Take B4: the binding result was “no binding (tested: 20 nM)”.

Regarding B6, the binding result is given as “no binding (tested: 20 nM)”.

In the next experiment the target is T9, transactive response DNA binding protein 43 (UniProt Q13148 1-414, limits assumed).
T9 construct: also called TDP-43
T9 sequence (Q13148 whole entry): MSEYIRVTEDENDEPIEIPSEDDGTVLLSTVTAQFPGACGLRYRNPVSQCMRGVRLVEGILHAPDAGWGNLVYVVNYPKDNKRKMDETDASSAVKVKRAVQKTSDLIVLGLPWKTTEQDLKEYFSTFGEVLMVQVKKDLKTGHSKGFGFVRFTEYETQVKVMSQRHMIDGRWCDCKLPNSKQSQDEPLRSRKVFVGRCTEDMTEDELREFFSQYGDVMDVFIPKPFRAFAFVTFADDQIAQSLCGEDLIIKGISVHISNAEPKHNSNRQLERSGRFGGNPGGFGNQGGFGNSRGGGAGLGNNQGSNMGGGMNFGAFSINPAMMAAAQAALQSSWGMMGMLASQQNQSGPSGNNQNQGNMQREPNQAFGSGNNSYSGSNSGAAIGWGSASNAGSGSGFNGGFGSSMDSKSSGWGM
Briefly: indirect ELISA, coated protein. Here is the method:
as §3
Turning to B1, the binding result is on record as “no binding (tested: 20 nM)”.

Consider B5, for which the binding result was “no binding (tested: 20 nM)”.

Regarding B4, the binding result is reported as “no binding (tested: 20 nM)”.

Consider B6, for which the binding result is on record as “no binding (tested: 20 nM)”.

The next experiment concerns the target Tau (UniProt P10636-8 1-441, limits assumed). Kind of experiment: indirect ELISA, coated protein. The protocol: as §3
On to B1, for which the binding result is given as “no binding (tested: 20 nM)”.

For B5, the binding result is recorded as “no binding (tested: 20 nM)”.

For B4, the binding result is “no binding (tested: 20 nM)”.

In the case of B6, the binding result is “no binding (tested: 20 nM)”.
